koff, Kd and kon data for six molecules are collected here from patent US20200392233A1 (ACCELERON PHARMA, published 2020).

Sequences and labels used below:
T1: rat Alk7-Fc comprising protein (rat, UniProt P70539 26-113)
T1 construct: not shown: Fc portion and any linker of the Alk7-Fc comprising protein are not described
T1 sequence: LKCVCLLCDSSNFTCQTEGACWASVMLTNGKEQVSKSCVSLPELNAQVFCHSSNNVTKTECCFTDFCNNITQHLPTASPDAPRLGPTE

B1: J01 (antibody, V domains shown)
VH: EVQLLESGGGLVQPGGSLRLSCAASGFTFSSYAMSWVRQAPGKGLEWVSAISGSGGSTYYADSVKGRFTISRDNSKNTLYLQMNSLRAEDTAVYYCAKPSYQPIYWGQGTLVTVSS
VL: DIQMTQSPSSVSASVGDRVTITCRASQGISSWLAWYQQKPGKAPKLLIYAASSLQSGVPSRFSGSGSGTDFTLTISSLQPEDFATYYCQQAASYPLTFGGGTKVEIK
notes: also called antibody J01
B2: G05 (antibody, V domains shown)
VH: QVQLVQSGAEVKKPGSSVKVSCKASGGTFSGQAISWVRQAPGQGLEWMGGIIPSFGTARYAQKFQGRVTITADESTSTAYMELSSLRSEDTAVYYCARTPYYDSSGYLDVWGQGTMVTVSS
VL: DIQMTQSPSSLSASVGDRVTITCQASHDIDNYLNWYQQKPGKAPKLLIYYASNLKTGVPSRFSGSGSGTDFTFTISSLQPEDIATYYCQQSRASPPTFGGGTKVEIK
notes: also called mAb G05; ALK7 mAb G05
B3: L02 (antibody, V domains shown)
VH: QVQLVQSGAEVKKPGASVKVSCKASGYTFAGYNMHWVRQAPGQGLEWVGIINPNSGWTNYAQKFQGRVTMTRDTSVSAAYMELSRLRSDDTAVYYCARDPVGARYEVFDYWGQGTLVTVSS
VL: EIVMTQSPATLSVSPGERATLSCRASQSVSSALAWYQQKPGQAPRLLIYSAFTRASGIPARFSGSGSGTEFTLTISSLQSEDFAVYYCQQAWAFPLTFGGGTKVEIK
notes: also called mAb L02
B4: C03 (antibody, V domains shown)
VH: QLQLQESGPGLVKPSETLSLTCTVSGGSISSSAYYWAWIRQPPGKGLEWIGSIYLSGSTTYNPSLKSRVTISVDTSKNQFSLKLSSVTAADTAVYYCARDGRYQSRSPDYYYGMDVWGQGTTVTVSS
VL: EIVLTQSPGTLSLSPGERATLSCKASQSVSSSYLAWYQQKPGQAPRLLIYGAFSRANGIPDRFSGSGSGTDFTLTISRLEPEDFAVYYCQQLVSYPFTFGGGTKVEIK
notes: also called mAb C03; ALK7 mAb C03
B5: J02 (antibody, V domains shown)
VH: EVQLLESGGGLVQPGGSLRLSCAASGFTFSVYAMSWVRQAPGKGLEWVSAISGSGDSTVYADSVKGRFTISRDNSKNTLYLQMNSLRAEDTAVYYCAKPSYQPIYWGQGTLVTVSS
VL: B1 VL
notes: also called mAb J02; ALK7 mAb J02
B6: K02 (antibody, V domains shown)
VH: QVQLVQSGAEVKKPGSSVKVSCKASGGTFSSSAIGWVRQAPGQGLEWMGGIWPIFGTALYAQKFQGRVTITADESTSTAYMELSSLRSEDTAVYYCARDPREYIHVFDIWGQGTMVTVSS
VL: B1 VL with V11L, G28S, W32Y, A34N, A50G, A92Y, Y94F, L96W, T102I
notes: also called mAb K02; KO2

In general, koff refers to the first-order rate constant of dissociation. Lower therefore signals a long-lived complex. As usually defined, the Kd is a measure of binding affinity in units of concentration. As usually defined, the kon is a measure of how fast the partners come together.

Changes are numbered by the printed parent chain.

The first test has as its target T1, rat Alk7-Fc comprising protein. The experiment in a line: SPR (Biacore T100/T200), antibody captured on FAB chip, Alk7-Fc analyte, 1:1 fit. On the procedure:
(§1) Experiments were performed using a Biacore T100/T200 biosensor (Biacore/GE Healthcare) at 25 and 37° C. ALK7 antibodies were captured on custom made FAB chip. A concentration series of ALK7-Fc comprising protein was injected over the flow cells at a flow rate of […]. To obtain kinetic rate constants the corrected data were fit to a 1:1 interaction model using BiaEvaluation software (GE Healthcare). The equilibrium binding constant KD was determined by the ratio of binding rate constants kd/ka.
Molecule B1 showed a koff of 0.000478 s⁻¹.

For the next test, the target named is T2, ALK7-Fc comprising protein.
T2 construct: It is probably the human protein
T2 sequence (Q8NER5 22-113): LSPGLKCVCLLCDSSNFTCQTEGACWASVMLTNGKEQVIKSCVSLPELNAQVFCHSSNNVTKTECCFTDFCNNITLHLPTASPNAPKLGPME
The experiment in a line: SPR (Biacore T100/T200) at 25 °C, antibody captured on FAB chip, ALK7-Fc analyte, 1:1 fit. On the procedure:
as §1
B2 displayed a Kd of 0.87 nM, a koff of 2.59e-05 s⁻¹ and a kon of 29900 M⁻¹ s⁻¹.
B3 came in with a Kd of 0.44 nM, a koff of 1.21e-05 s⁻¹ and a kon of 27400 M⁻¹ s⁻¹.
B4: the Kd amounted to 0.33 nM, the koff is 1.27e-05 s⁻¹ and the kon came to 38300 M⁻¹ s⁻¹.
B5 showed an equilibrium dissociation constant (Kd) of 5.33 nM, a koff of 0.000126 s⁻¹ and an on-rate constant (kon) of 23600 M⁻¹ s⁻¹.
B6 gave a Kd of 12.4 nM, a koff of 0.000291 s⁻¹ and a kon of 23500 M⁻¹ s⁻¹.
